Residue numbers refer to the chain shown, from its start.

B1: Ab325 (antibody, V domains shown)
VH: QVQLQQSGAELVKPGASVKISCKASGYAFSSYWMNWVKQRPGKGLEWIGQIYPGDGDTNYNGKFKGKATLTADKSSSTAYMQLSSLTSEDSAVYFCARWYYGSYYAMDYWGQGTSVTVSS
VL: DIQMTQTTSSLSASLGDRVTISCRASQDISNYLNWYQQKPDGTVKLLIYYTSRLHSGVPSRFSGSGSGTDYSLTISNLEQEDIATYFCQQGNTLPRTFGGGTKLEIKR
notes: rodent hybridoma mAb
B2: Ab323 (antibody, V domains shown)
VH: QVQLQQSGAELVKPGASVKISCKTSGYTFSNYWMNWVKQRPGKGLEWIGQIFPGDADANYNGKFKGKATLTADKSSSAAFMQLSSLTSEDSAVYFCARFSYDGAFAYWGQGTLVTVS
VL: DIVMTQSHKFMSTSVGDRVSITCKASQDVSTAVAWYQQKPGQSPKPLIYWASTRHTGVPDRFTGSGSGTDYTLTISSVQTEDLALYYCQQHYSTPRTFGGGTKLEIKR
notes: rodent hybridoma mAb
B3: Ab326 (antibody, V domains shown)
VH: QVQLQQSGAELAKPGASVKLSCKASGYTFTSYWMHWVKQRPGQGLEWIGYIKPSSGYTKYNQKFKDKATLTADKSSSTAYMQLSSLTYEDSAVYYCARDYYGSSSWFAYWGQGTLVTVSA
VL: DIVMTQSQRFMSTSVGDRVSVTCKASQNVGTNVAWYQQKPGQSPKALIYSASYRYSGVPDRFTGSGSGTDFTLTISNVQSEDLAEYFCQQYNSYPYMYTFGGGTKLEIKR
notes: rodent hybridoma mAb
B4: Ab328 (antibody, V domains shown)
VH: B3 VH with K52N, Y88F
VL: B3 VL with R9K, Q42H, Q90R, Y98F
notes: rodent hybridoma mAb
B5: Ab322 (antibody, V domains shown)
VH: B3 VH with S31N, K52N
VL: B3 VL with I75V
notes: rodent hybridoma mAb
B6: Ab327 (antibody, V domains shown)
VH: DVKLVESGEGLVKPGGSLKLSCAASGFTFSSYAMSWVRQTPEKRLEWVTYISSGGDYIYYADTVKGRFTISRDNARNTLYLQMSSLKSEDTAMYYCTRERIWLRRFFDVWGTGTTVTVSS
VL: DIVMTQSQKFMSTSVGDRVSITCKASQNVGTAVAWYQLKPGQSPKLLIYSASNRFTGVPDRFTGSGSGTDFTLTISNMQSEDLADYFCQQYSSYPLTFGSGTKLEIKR
notes: rodent hybridoma mAb
B7: Ab331 (antibody, V domains shown)
VH: EVQVVETGGGVVQPGKSLEITCATSGLTFSTAWMYWVRQSSDRRLEWIARIKDKSNNFASDYVESVRGRFTISRDDSRSSVYLQMNNLKEEDTATYYCTTSYGYAWGQGVMVTVSS
VL: DIQMTQSPSSMSASLGDRITITCQASQDIGNYLIWFQQKPGKSPRPLIYYATNLANGVPSRFSGSRSGSEYSLTITSLESEDMADYHCLQYKQHLTFGSGTKLEIER
notes: rodent hybridoma mAb
B8: Ab332 (antibody, V domains shown)
VH: EVQLQQSGPELVKPGTSVKISCKASGYTFTDYYMNWMKQSHGKSLEWIGDINPNNGVTSYNQKFKGKATLTVDKSSSTAYMELRSLTSEDSAVYYCAREDYGSNYFDYWGQGTTLTVSS
VL: DIVLTQSPASLAVSLGQRATISCKASQSVDYDGDSYMNWYQQKPGQPPKLLIYAASNLESGIPARLSGSGSGTDFTLNIHPVEEEDAATYYCQQSNEDPPTFGGGTKLEIRR
notes: rodent hybridoma mAb
B9: Ab352 (antibody, V domains shown)
VH: EVQLVQSGPEVKKPGTSVKLSCKASGYTFTSYWMHWVRQARGQRLEWIGYIKPSSGYTKYNQKFKDRATLTADKSTSTAYMELSSLRSEDTAVYYCARDYYGSSSWFAYWGQGTLVTVSS
VL: EIVMTQSPAFLSVTPGEKVTITCKASQNVGTNVAWYQQKPDQAPKALIYSASYRYSGVPSRFSGSGSGTDFTLTISSLEAEDAATYYCQQYNSYPYMYTFGQGTKLEIK
notes: humanized
B10: Ab355 (antibody, V domains shown)
VH: B9 VH with E1Q, P9A, K12A, T16A, R38K, R41P, R44G, R67K, S84R, E89D
VL: B9 VL
notes: humanized
B11: Ab400 (antibody, V domains shown)
VH: B9 VH
VL: EIVMTQSQATMSTSVGERATLSCKASQNVGTNVAWYQQKPGQSPKALIYSASYRYSGVPARFSGSGSGTDFTLTISSVEPEDFAVYYCQQYNSYPYMYTFGQGTKLEIK
notes: humanized
B12: Ab403 (antibody, V domains shown)
VH: B9 VH with E1Q, P9A, K12A, T16A, R38K, R41P, R44G, R67K, S84R, E89D
VL: B11 VL
notes: humanized
B13: Ab402 (antibody, V domains shown)
VH: B9 VH with P9A, N61A, K65Q, D66E, A68V
VL: B11 VL
notes: humanized

Chain of mouse ALK, purified (mALK) (P97793 19-1042 limits assumed): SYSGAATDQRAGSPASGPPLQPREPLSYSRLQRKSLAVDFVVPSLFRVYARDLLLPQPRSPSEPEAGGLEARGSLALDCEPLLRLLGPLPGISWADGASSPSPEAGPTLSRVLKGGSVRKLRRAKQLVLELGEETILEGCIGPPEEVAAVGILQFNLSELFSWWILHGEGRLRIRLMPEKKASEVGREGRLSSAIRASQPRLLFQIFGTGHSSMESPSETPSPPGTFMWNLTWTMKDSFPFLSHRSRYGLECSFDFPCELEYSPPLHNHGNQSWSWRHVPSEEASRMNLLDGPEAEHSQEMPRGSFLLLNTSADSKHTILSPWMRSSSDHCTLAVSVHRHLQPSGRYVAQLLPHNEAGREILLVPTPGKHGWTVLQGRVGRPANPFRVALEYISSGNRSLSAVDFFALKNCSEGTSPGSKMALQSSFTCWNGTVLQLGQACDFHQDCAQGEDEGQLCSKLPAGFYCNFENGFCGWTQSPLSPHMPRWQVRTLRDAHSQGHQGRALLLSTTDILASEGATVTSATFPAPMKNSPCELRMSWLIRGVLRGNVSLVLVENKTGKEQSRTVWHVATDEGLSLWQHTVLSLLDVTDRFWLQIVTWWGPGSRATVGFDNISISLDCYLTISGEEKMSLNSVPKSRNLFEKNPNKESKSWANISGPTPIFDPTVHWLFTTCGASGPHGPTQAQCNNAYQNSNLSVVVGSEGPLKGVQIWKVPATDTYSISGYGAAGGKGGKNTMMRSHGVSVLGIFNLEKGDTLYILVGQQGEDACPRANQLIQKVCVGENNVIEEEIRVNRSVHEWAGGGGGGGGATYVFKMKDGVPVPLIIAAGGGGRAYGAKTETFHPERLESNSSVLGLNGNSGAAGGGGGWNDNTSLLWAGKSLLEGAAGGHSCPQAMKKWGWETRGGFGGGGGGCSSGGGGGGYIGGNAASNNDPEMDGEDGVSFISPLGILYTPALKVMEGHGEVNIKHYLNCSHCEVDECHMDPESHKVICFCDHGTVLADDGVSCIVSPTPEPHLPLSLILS
Chain of human ALK, purified (hALK) (Q9UM73 other isoform, or with tags, fused parts or gaps limits assumed): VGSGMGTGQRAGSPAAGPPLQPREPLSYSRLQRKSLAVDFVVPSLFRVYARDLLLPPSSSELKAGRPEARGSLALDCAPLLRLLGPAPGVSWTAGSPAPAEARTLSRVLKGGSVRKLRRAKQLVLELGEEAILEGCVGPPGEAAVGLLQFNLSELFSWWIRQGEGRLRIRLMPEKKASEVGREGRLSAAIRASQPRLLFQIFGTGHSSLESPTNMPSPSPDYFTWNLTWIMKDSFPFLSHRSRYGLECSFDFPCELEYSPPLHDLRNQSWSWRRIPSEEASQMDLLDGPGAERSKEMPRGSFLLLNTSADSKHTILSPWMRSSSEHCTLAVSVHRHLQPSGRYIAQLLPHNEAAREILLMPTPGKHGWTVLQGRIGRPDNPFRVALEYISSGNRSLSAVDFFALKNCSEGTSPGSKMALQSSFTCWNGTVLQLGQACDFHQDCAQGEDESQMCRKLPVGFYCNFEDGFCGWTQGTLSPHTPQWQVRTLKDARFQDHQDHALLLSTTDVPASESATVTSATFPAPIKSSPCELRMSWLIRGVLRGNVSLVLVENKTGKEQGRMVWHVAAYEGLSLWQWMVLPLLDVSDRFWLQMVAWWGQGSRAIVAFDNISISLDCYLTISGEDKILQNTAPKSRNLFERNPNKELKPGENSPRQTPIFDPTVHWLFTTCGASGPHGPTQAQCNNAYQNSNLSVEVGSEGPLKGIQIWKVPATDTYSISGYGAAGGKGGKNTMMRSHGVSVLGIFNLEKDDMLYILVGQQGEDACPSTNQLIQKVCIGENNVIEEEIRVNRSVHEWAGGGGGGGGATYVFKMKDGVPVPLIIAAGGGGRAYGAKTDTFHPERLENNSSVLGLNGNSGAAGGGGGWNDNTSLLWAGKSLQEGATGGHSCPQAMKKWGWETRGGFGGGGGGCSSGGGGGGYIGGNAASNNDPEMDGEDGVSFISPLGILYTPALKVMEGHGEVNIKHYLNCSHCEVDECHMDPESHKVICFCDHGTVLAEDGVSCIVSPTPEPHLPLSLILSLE
Chain of rat ALK, purified (rALK) (P97793 other isoform, or with tags, fused parts or gaps limits assumed): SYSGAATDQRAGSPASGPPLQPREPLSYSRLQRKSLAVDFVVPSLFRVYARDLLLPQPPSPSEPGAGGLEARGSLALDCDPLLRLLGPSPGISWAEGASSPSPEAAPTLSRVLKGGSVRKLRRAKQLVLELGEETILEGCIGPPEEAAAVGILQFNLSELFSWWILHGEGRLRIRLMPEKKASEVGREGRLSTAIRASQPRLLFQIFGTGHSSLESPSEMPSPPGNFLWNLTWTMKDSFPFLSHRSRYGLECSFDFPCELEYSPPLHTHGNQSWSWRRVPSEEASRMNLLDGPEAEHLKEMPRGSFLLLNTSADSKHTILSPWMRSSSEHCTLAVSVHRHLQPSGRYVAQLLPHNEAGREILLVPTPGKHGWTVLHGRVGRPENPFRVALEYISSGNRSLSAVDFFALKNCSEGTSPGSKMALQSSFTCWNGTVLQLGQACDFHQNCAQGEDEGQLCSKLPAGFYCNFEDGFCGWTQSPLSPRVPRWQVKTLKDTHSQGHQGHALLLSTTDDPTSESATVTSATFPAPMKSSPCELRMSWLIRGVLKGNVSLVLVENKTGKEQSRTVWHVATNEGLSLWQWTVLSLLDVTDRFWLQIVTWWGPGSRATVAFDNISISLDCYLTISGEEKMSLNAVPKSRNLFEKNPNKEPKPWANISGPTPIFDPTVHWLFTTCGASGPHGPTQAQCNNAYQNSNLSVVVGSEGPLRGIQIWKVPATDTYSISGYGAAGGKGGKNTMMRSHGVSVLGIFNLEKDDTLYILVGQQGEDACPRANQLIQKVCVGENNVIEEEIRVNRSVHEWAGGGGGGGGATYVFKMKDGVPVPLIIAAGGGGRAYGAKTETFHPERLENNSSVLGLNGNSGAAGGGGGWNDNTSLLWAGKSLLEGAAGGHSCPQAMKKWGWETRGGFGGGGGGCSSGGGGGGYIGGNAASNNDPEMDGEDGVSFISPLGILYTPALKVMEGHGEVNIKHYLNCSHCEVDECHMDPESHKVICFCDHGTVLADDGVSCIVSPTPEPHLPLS
T3 sequence (P97793 19-1042 limits assumed): as the sequence (P97793 19-1042 limits assumed) above

The target in the first experiment is T1, human ALK on the surface of NB1 cells (human, UniProt Q9UM73 21-1620).
T1 construct: ALK of NB1 cells; also called cell surface hALK; NB1 (human)
T1 sequence (Q9UM73 21-1620): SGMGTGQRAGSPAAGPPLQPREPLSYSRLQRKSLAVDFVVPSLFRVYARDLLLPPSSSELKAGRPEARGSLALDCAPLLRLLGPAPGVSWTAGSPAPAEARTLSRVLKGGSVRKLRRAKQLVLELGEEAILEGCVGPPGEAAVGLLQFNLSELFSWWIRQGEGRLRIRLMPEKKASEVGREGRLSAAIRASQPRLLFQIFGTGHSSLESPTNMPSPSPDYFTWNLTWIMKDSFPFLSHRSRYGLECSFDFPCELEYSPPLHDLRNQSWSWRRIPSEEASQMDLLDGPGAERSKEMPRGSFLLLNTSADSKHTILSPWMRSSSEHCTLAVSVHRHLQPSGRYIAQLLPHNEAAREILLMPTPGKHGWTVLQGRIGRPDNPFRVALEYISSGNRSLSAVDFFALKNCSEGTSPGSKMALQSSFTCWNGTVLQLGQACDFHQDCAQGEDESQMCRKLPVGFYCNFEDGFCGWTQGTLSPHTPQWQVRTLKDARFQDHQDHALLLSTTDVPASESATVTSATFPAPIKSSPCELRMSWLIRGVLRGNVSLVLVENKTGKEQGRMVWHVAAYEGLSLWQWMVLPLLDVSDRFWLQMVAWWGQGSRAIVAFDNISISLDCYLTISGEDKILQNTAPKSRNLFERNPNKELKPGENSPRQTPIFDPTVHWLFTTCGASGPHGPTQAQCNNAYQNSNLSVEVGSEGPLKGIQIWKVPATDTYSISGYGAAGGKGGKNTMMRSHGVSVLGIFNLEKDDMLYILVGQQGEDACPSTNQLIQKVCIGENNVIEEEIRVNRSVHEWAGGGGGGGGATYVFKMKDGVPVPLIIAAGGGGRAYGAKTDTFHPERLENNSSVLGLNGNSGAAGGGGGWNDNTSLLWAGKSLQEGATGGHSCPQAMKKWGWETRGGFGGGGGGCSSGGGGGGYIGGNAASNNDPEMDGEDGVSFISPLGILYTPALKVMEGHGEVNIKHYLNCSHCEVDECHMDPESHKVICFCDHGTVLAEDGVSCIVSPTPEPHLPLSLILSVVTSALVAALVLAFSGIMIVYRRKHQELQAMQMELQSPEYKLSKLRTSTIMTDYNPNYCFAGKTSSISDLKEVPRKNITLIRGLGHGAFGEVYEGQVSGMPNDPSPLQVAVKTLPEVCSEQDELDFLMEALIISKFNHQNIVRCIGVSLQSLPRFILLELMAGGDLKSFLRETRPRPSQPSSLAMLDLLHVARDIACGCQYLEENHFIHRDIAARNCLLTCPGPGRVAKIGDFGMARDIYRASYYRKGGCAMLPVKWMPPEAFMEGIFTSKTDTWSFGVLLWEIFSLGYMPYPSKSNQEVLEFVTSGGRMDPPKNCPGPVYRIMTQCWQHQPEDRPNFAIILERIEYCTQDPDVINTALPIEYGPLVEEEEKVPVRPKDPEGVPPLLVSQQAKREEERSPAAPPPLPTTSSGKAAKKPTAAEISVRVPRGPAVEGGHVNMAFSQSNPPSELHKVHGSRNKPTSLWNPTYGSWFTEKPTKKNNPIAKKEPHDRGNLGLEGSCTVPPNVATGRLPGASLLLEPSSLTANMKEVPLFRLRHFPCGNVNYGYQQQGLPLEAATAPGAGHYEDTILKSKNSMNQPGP
Description: flow cytometry titration on NB1 cells, steady state. The protocol: KD was determined by flow cytometry. Titration of each antibody on NB1 cells for 2-4 hours at 4° C. was followed by incubation with a fluorescently-labeled secondary antibody. The normalized mean fluorescent intensity […] shown as “% Max binding” was plotted as a function of antibody concentration.
Flow cytometry was utilized to measure the affinity at steady state (KD) with which different ALK antibodies bind to ALK on the surface of NB1 cells (FIG. 3). Titration of each antibody on NB1 cells for 2-4 hours at 4° C. was followed by incubation with a fluorescently-labeled secondary antibody. The normalized mean fluorescent intensity (MFI) shown as “% Max binding” was plotted as a function of antibody concentration. The data were fit to a one site binding isotherm using GraphPad Prism, from which affinity values were derived.
In general terms: In flow cytometry, cells or beads pass a laser one at a time.
B1 had a Kd of 0.1 nM.

In the case of B2, binding was characterised by a dissociation constant (Kd) of 0.08 nM.

On to B3, for which binding was put at a Kd of 0.35 nM.

On to B4, for which the affinity, expressed as Kd, was 0.5 nM.

Take B5: the Kd came to 0.5 nM.

B6 came in with a Kd of 0.4 nM.

B7 yielded a Kd of 2.5 nM.

Take B8: the Kd stood at 1.55 nM.

The target in the next experiment is T2, purified ALK protein (BLitz, Table 20) (Homo sapiens (Human), UniProt Q9UM73 19-1038, limits assumed).
T2 construct: also called purified ALK proteins
Description: BLI (BLitz), mAb on Protein A tip, purified ALK in solution. In outline: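 Humanized anti-ALK mAbs loaded at 0.5 mg/mL on Protein A tips; after stable baseline, purified ALK protein at 70 μg/mL added. Kinetic traces fit to a single binding site model to give monovalent KD.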
Molecule B9 gave a Kd of 77.2 nM.

Consider B10, for which the Kd amounted to 86.5 nM.

The next experiment has as its target T3, murine ALK (Table 18, 'mouse ALK binding') (mouse, UniProt P97793 19-1042, limits assumed).
T3 construct: either purified mouse ALK antigen coated in ELISA or endogenous ALK on Neuro-2a cells
Description: ELISA on purified mouse ALK or flow cytometry on Neuro-2a cells. The protocol: Purified mAbs were evaluated for their ability to bind murine ALK by solid-state ELISA, or flow cytometry on Neuro-2a cells that express low levels of endogenous murine ALK.
Luminescence data were plotted as a function of the log-transformed anti-ALK antibody concentration and fit to a 4-parameter non-linear regression equation.
Alternatively, Neuro-2a cells were incubated with 10-100 nM of anti-ALK antibodies, followed by a fluorescently-labeled secondary antibody. Mean fluorescence intensity (MFI) of live-gated cells treated with anti-ALK antibodies was divided by background, determined using the secondary antibody alone.
On the technique in general: In an ELISA, binding on a coated surface is turned into a signal by an enzyme label.
In the case of B5, the binding result was “no binding”.

As for B7, the binding result is listed as “no binding”.

A further experiment addresses human ALK, purified (hALK) (human, UniProt Q9UM73 19-1038, limits assumed). Description: BLI (BLitz), estimated monovalent affinity, single dose kinetics. As to the method:
(§1) Kinetic measurements of the monovalent affinity of the 96 humanized ALK antibody variants (Ab351-Ab446) were collected. Affinity ranking was performed using a BLitz® System (ForteBio, Menlo Park, Calif.). Humanized anti-ALK antibodies were immobilized at 0.5 mg/mL using Protein A tips. Once baseline stability was ensured, purified ALK proteins at 70 μg/mL were added. The resulting kinetic data were fit to a single binding site equation, from which the quoted monovalent KD values were derived.
(§2) KD values for both NB1 (human) cells and Neuro2a (mouse) cells were also determined.
Take B9: the Kd is 105 nM.

On to B10, for which the Kd was 103 nM.

For the molecule B3, the Kd was 69 nM.

A further experiment has as its target mouse ALK, purified (mALK) (mouse, UniProt P97793 19-1042). Described as above. The protocol:
as §1, §2
Regarding B9, the Kd is 205 nM.

With B10, the Kd was 150 nM.

B3: the Kd was 120 nM.

The next experiment concerns the target rat ALK, purified (rALK) (rat, UniProt P97793 19-1038 (mouse entry), limits assumed). The experiment is described as above. As to the method:
as §1, §2
For the molecule B9, the Kd is 24 nM.

For B11, the Kd is 18 nM.

For the molecule B12, the Kd is 22 nM.

As for B10, the Kd was 31 nM.

For the molecule B13, the Kd is 24 nM.

Regarding B3, the Kd is 35 nM.

As usually defined, the Kd is the concentration at which binding is half-saturated.
